Assay results taken from patent publication US20260274955A1 (JANUX THERAPEUTICS, published 2026).

What was measured:
[1] = target: T1, anti-CD28 Fab (SEQ ID NOs: 202, 203); test: phage binding ELISA; Fab wells pre-incubated with CD28 antigen (competitor);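 also: clonal phage supernatants added to wells preincubated with CD28 antigen in blocking buffer versus blocking buffer alone, washed, bound phage read by HRP-conjugated anti-M13 antibody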
T1 construct: biotinylated and captured on neutravidin coated plates in the phage ELISA
T1 sequence (VH, as listed by the source, chain 1 of 2): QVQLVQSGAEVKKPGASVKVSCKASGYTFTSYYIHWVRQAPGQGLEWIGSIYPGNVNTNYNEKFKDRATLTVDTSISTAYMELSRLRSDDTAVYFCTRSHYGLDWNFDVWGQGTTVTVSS
T1 sequence (VL, as listed by the source, chain 2 of 2): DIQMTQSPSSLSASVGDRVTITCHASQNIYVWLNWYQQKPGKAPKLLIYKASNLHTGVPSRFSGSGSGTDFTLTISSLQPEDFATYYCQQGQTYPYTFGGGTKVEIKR
Experimental: (§1) Clonal phage were harvested as crude supernatants and screened via standard ELISAs. […] Prior to the addition of clonal phage, wells were incubated with blocking buffer and CD28 antigen or blocking buffer alone. Without washing or aspirating, clonal phage supernatants were then added to the wells and incubated for a short time. Wells were then washed followed by detection of bound phage using a horse radish conjugated anti-M13 antibody.

[2] = target: T1, anti-CD28 Fab (SEQ ID NOs: 202, 203); test: phage binding ELISA; biotinylated Fab on neutravidin plate;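 also: clonal phage supernatants added to Fab wells pretreated with CD28 antigen or with blocking buffer only, bound phage read out via HRP-linked anti-M13 antibody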
Experimental: as §1

[3] = target: Anti-CD28 Fab (SEQ ID NOs: 202, 203); test: phage binding ELISA on captured Fab; competitor CD28 antigen;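 as to Anti-CD28 Fab signal in the presence of CD28: wells pretreated with CD28 antigen in blocking buffer or buffer only, then clonal phage supernatants added briefly without washing, bound phage detected via horseradish-conjugated anti-M13 antibody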
Chain of Anti-CD28 Fab (SEQ ID NOs: 202, 203) (VH, as listed by the source, chain 1 of 2): as the sequence (VH, as listed by the source, chain 1 of 2) above
Chain of Anti-CD28 Fab (SEQ ID NOs: 202, 203) (VL, as listed by the source, chain 2 of 2): as the sequence (VL, as listed by the source, chain 2 of 2) above
Experimental: as §1

[4] = target: Anti-CD28 Fab (SEQ ID NOs: 202, 203); test: phage binding ELISA on captured Fab;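 also: clonal phage supernatants added briefly to wells pre-incubated with CD28 antigen or with blocking buffer only, then washed, bound phage read by ELISA using HRP-coupled anti-M13 antibody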
Experimental: as §1

Binder | Anti-CD28 Fab signal in the presence of CD28 [1] | Anti-CD28 Fab (SEQ ID NOs: 202, 203) signal [2] | Anti-CD28 Fab signal in the presence of CD28 [3] | Anti-CD28 Fab signal [4]
YCQGHSAEYMMKCL [Phage-364] | 0.07 | 1.81 |  | 
YCEGHLQIYMSKCL [Phage-346] | 0.14 | 1.84 |  | 
YCEGHLPIYMSKCL [Phage-388] | 0.09 | 1.76 |  | 
YCDGHTREYIDKCL [Phage-368] | 0.08 | 1.8 |  | 
YCDGHSLQYLGKCL [Phage-343] | 0.09 | 1.84 |  | 
YCDGHSWAYMWKCL [Phage-341] | 0.13 | 1.85 |  | 
YCDGHSSEYIAKCL [Phage-383] | 0.07 | 1.77 |  | 
YCDGHSPEYIAKCL [Phage-374] | 0.23 | 1.79 |  | 
YCDGHLPVYLEKCL [Phage-444] | 0.06 | 1.69 |  | 
YCEGHEGIYFWKCL [Phage-27] |  |  | 0.06 | 2.07
YCAGHAPEYMFKCM [Phage-347] | 0.06 | 1.83 |  | 
YCDGHLPEYMAKCL [Phage-69] |  |  | 0.13 | 2.37
YCEGHAPEYIAKCL [Phage-29] |  |  | 0.09 | 2.15
YCEGHAPEYMAKCL [Phage-46] |  |  | 0.08 | 2.47
YCEGHLPEYIWKCL [Phage-43] |  |  | 0.09 | 2.32
YCAGHAPEYMEKCL [Phage-48] |  |  | 0.09 | 2.45
YCEGHLPEYREKCL [Phage-34] |  |  | 0.07 | 1.96
YCEGHLPEYLGKCL [Phage-33] |  |  | 0.08 | 1.23
YCEGHLPEYIQKCL [Phage-42] |  |  | 0.08 | 1.9
YCEGHAPEYIRKCL [Phage-30] |  |  | 0.08 | 1.63
YCDGHLPQYMEKCL [Phage-47] |  |  | 0.11 | 2.47
YCEGHLPEYIEKCL [Phage-28] |  |  | 0.08 | 2.06
YCEGHAPEYIWKCL [Phage-31] |  |  | 0.07 | 1.63
YCDGHSPIYMWKCL [Phage-45] |  |  | 0.09 | 2.47
YCEGHLPEYRNKCL [Phage-40] |  |  | 0.17 | 2.38
YCEGHAPEYIGKCL [Phage-44] |  |  | 0.07 | 2.1

Binder | Anti-CD28 Fab signal in the presence of CD28 [1] | Anti-CD28 Fab (SEQ ID NOs: 202, 203) signal [2] | Anti-CD28 Fab signal in the presence of CD28 [3] | Anti-CD28 Fab signal [4]
YCEGHLPEYLAKCL [Phage-35] |  |  | 0.1 | 2.34
YCDGHSPEYMWKCL [Phage-49] |  |  | 0.09 | 2.44
YCAGHVPEYMAKCL [Phage-379] | 0.07 | 1.78 |  | 
YCDGLASEYMSKCL [Phage-382] | 0.05 | 1.77 |  | 
YCDGHKAEYMEKCL [Phage-366] | 0.09 | 1.81 |  | 
YCVGHAPEFMAKCL [Phage-369] | 0.1 | 1.8 |  | 
YCAGHLQEYMQKCL [Phage-445] | 0.07 | 1.69 |  | 
YCDGHTSEYITKCL [Phage-373] | 0.07 | 1.79 |  | 
YCAGHLPEYMLKCL [Phage-387] | 0.09 | 1.76 |  | 
YCDGHAWEYMTKCL [Phage-448] | 0.35 | 1.69 |  | 
YCDGHLGVYMAKCL [Phage-372] | 0.07 | 1.79 |  | 
YCDGHSAAYIMKCL [Phage-342] | 0.09 | 1.84 |  | 
YCEGHSPEYILKCL [Phage-25] |  |  | 0.06 | 1.75
YCDGHSPEYILKCL [Phage-93] |  |  | 0.09 | 2.31
YCEGHRPEYILKCL [Phage-26] |  |  | 0.06 | 1.27
YCAGHSPLYMLKCL [Phage-442] | 0.1 | 1.7 |  | 
YCEGHLDEYMWKCL [Phage-381] | 0.06 | 1.77 |  | 
YCAGHAEQYMAKCL [Phage-370] | 0.08 | 1.8 |  | 
YCDGHSAEYITKCL [Phage-380] | 0.06 | 1.77 |  | 
YCAGHLPMYMAKCL [Phage-367] | 0.08 | 1.8 |  | 
YCDGHSPAYMAKCL [Phage-350] | 0.1 | 1.83 |  | 
YCAGHLPEYLSKCL [Phage-345] | 0.07 | 1.84 |  | 
YCAGHSSEYMWKCL [Phage-340] | 0.07 | 1.85 |  | 
YCEGHSPQYVQKCL [Phage-384] | 0.06 | 1.77 |  | 
YCDGHLDEYMEKCL [Phage-386] | 0.08 | 1.76 |  | 
YCEGHSPWYMNKCL [Phage-449] | 0.06 | 1.68 |  | 
